Tests used:
[1] = target: T1, MFN1IM (Homo sapiens, UniProt Q8IWA4, DEL365-694); assay: ITC; type: binding
T1 construct: gene MFN1; internally truncated (residues 365-694 removed, G domain + HD1); E. coli; His6 cut by PreScission
T1 sequence (Q8IWA4 1-364): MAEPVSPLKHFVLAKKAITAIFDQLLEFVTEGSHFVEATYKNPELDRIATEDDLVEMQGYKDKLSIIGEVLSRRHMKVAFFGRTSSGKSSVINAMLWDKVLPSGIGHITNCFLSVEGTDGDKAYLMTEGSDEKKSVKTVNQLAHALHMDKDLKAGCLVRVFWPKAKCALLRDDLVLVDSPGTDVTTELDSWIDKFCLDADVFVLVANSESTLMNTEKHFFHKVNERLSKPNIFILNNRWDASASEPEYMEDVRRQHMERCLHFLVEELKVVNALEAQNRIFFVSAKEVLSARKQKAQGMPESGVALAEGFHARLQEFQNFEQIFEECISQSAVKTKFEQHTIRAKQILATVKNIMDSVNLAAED
T1 sequence (Q8IWA4 695-741): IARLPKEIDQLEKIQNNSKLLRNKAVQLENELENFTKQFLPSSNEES

[2] = target: T2, MFN2IM (Homo sapiens, UniProt O95140, DEL401-705); assay: ITC; type: binding
T2 construct: gene MFN2; deletion of residues 1-21 and 401-705 (G domain + HD1); E. coli; N-terminal His6 cut by PreScission
T2 sequence (O95140 22-400): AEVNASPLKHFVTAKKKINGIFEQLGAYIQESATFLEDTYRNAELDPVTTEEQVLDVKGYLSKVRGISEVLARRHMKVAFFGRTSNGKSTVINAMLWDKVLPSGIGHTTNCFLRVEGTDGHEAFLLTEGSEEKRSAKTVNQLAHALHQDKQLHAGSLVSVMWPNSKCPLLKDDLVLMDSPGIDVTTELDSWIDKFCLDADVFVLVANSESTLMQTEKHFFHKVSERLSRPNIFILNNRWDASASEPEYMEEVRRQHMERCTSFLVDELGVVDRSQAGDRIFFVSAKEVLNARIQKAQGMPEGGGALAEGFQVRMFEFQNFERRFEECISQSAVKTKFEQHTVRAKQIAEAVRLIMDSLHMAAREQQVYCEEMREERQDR
T2 sequence (O95140 706-757): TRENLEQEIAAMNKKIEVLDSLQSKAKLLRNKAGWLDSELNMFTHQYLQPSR

[3] = target: the molecule itself; assay: SEC-RALS; analytical gel filtration (Superdex 200 10/300) coupled to right-angle light scattering; 50 μM protein incubated with 500 μM GTP or GDP∙BeF3− for 2 h at room temperature; 20 mM HEPES pH 7.5, 150 mM KCl, 5 mM MgCl2, 1 mM DTT
[4] = target: T3, MBP-fused MFN2IM (human, UniProt O95140 22-757, deletions of residues 1–21 and 401–705); assay: native gel or EMSA; blue native PAGE at 4 °C; MBP-tagged MFN1IM/MFN2IM mixed with 10 μM partner and tenfold GDP∙BeF3−, 2 h at room temperature; Coomassie stain; settings: both partners purified
T3 construct: human mitofusin-2 (MFN2) with residues 1-21 and 401-705 deleted (MFN2IM); also called MBP-tagged MFN2IM; wild-type MFN2IM (native PAGE)
T3 sequence (looked up): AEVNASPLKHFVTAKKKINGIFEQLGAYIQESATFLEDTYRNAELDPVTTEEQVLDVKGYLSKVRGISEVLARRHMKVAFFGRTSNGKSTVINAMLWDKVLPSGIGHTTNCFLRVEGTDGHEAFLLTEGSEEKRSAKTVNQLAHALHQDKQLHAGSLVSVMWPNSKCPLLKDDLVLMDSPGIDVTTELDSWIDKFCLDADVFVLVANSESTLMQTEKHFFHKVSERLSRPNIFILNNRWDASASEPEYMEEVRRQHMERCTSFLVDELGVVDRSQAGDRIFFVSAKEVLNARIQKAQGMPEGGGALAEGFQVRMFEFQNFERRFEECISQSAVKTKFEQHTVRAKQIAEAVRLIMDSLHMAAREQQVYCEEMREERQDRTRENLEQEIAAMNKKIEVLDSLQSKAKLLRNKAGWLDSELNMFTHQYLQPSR

Nc1nc2c(ncn2[C@@H]2O[C@H](COP(=O)(O)OP(=O)(O)O)[C@@H](O)[C@H]2O)c(=O)[nH]1 [GDP]
Kd [1]: 217 ± 23.8 µM
Kd [2]: 14.4 ± 0.63 µM

Nc1nc2c(ncn2[C@@H]2O[C@H](COP(=O)(O)OP(=O)(O)OP(O)(O)=S)[C@@H](O)[C@H]2O)c(=O)[nH]1 [GTPγS]
Kd [1]: 83 ± 5.34 µM
Kd [2]: 3.3 ± 0.52 µM

B1: MFN2IM (modified human MFN2 construct with deletions of residues 1–21 and 401–705) (domain or fragment, UniProt O95140 22-757, looked up)
chain: AEVNASPLKHFVTAKKKINGIFEQLGAYIQESATFLEDTYRNAELDPVTTEEQVLDVKGYLSKVRGISEVLARRHMKVAFFGRTSNGKSTVINAMLWDKVLPSGIGHTTNCFLRVEGTDGHEAFLLTEGSEEKRSAKTVNQLAHALHQDKQLHAGSLVSVMWPNSKCPLLKDDLVLMDSPGIDVTTELDSWIDKFCLDADVFVLVANSESTLMQTEKHFFHKVSERLSRPNIFILNNRWDASASEPEYMEEVRRQHMERCTSFLVDELGVVDRSQAGDRIFFVSAKEVLNARIQKAQGMPEGGGALAEGFQVRMFEFQNFERRFEECISQSAVKTKFEQHTVRAKQIAEAVRLIMDSLHMAAREQQVYCEEMREERQDRTRENLEQEIAAMNKKIEVLDSLQSKAKLLRNKAGWLDSELNMFTHQYLQPSR
notes: human mitofusin-2 (MFN2) with residues 1-21 and 401-705 deleted (MFN2IM); Theoretical molecular mass 52.6 kDa; also called truncated human MFN2; wild-type MFN2IM; source: E. coli Rosetta (DE3), purified (Ni-NTA, His6-tag removed with PreScission protease, second Ni-NTA, gel filtration); not shown: His6, N-terminal, cleaved
stoichiometry N [3]: 2

B2: MFN2IM L248V (CMT2A-related mutant) (domain or fragment, human, UniProt O95140 22-757, looked up)
chain: AEVNASPLKHFVTAKKKINGIFEQLGAYIQESATFLEDTYRNAELDPVTTEEQVLDVKGYLSKVRGISEVLARRHMKVAFFGRTSNGKSTVINAMLWDKVLPSGIGHTTNCFLRVEGTDGHEAFLLTEGSEEKRSAKTVNQLAHALHQDKQLHAGSLVSVMWPNSKCPLLKDDLVLMDSPGIDVTTELDSWIDKFCLDADVFVLVANSESTLMQTEKHFFHKVSERVSRPNIFILNNRWDASASEPEYMEEVRRQHMERCTSFLVDELGVVDRSQAGDRIFFVSAKEVLNARIQKAQGMPEGGGALAEGFQVRMFEFQNFERRFEECISQSAVKTKFEQHTVRAKQIAEAVRLIMDSLHMAAREQQVYCEEMREERQDRTRENLEQEIAAMNKKIEVLDSLQSKAKLLRNKAGWLDSELNMFTHQYLQPSR
notes: human mitofusin-2 (MFN2) with residues 1-21 and 401-705 deleted (MFN2IM), CMT2A-related point mutant; source: E. coli Rosetta (DE3), purified; not shown: His6, N-terminal, cleaved
binding result [3]: binds

B3: MFN2IM P251L (CMT2A-related mutant) (domain or fragment, human, UniProt O95140 22-757, looked up)
chain: AEVNASPLKHFVTAKKKINGIFEQLGAYIQESATFLEDTYRNAELDPVTTEEQVLDVKGYLSKVRGISEVLARRHMKVAFFGRTSNGKSTVINAMLWDKVLPSGIGHTTNCFLRVEGTDGHEAFLLTEGSEEKRSAKTVNQLAHALHQDKQLHAGSLVSVMWPNSKCPLLKDDLVLMDSPGIDVTTELDSWIDKFCLDADVFVLVANSESTLMQTEKHFFHKVSERLSRLNIFILNNRWDASASEPEYMEEVRRQHMERCTSFLVDELGVVDRSQAGDRIFFVSAKEVLNARIQKAQGMPEGGGALAEGFQVRMFEFQNFERRFEECISQSAVKTKFEQHTVRAKQIAEAVRLIMDSLHMAAREQQVYCEEMREERQDRTRENLEQEIAAMNKKIEVLDSLQSKAKLLRNKAGWLDSELNMFTHQYLQPSR
notes: as for B2
binding result [3]: binds

B4: MFN2IM R364W (CMT2A-related mutant) (domain or fragment, human, UniProt O95140 22-757, looked up)
chain: AEVNASPLKHFVTAKKKINGIFEQLGAYIQESATFLEDTYRNAELDPVTTEEQVLDVKGYLSKVRGISEVLARRHMKVAFFGRTSNGKSTVINAMLWDKVLPSGIGHTTNCFLRVEGTDGHEAFLLTEGSEEKRSAKTVNQLAHALHQDKQLHAGSLVSVMWPNSKCPLLKDDLVLMDSPGIDVTTELDSWIDKFCLDADVFVLVANSESTLMQTEKHFFHKVSERLSRPNIFILNNRWDASASEPEYMEEVRRQHMERCTSFLVDELGVVDRSQAGDRIFFVSAKEVLNARIQKAQGMPEGGGALAEGFQVRMFEFQNFERRFEECISQSAVKTKFEQHTVWAKQIAEAVRLIMDSLHMAAREQQVYCEEMREERQDRTRENLEQEIAAMNKKIEVLDSLQSKAKLLRNKAGWLDSELNMFTHQYLQPSR
notes: as for B2
binding result [3]: binds

B5: MFN2IM R94Q (CMT2A-related mutant) (domain or fragment, human, UniProt O95140 22-757, looked up)
chain: AEVNASPLKHFVTAKKKINGIFEQLGAYIQESATFLEDTYRNAELDPVTTEEQVLDVKGYLSKVRGISEVLAQRHMKVAFFGRTSNGKSTVINAMLWDKVLPSGIGHTTNCFLRVEGTDGHEAFLLTEGSEEKRSAKTVNQLAHALHQDKQLHAGSLVSVMWPNSKCPLLKDDLVLMDSPGIDVTTELDSWIDKFCLDADVFVLVANSESTLMQTEKHFFHKVSERLSRPNIFILNNRWDASASEPEYMEEVRRQHMERCTSFLVDELGVVDRSQAGDRIFFVSAKEVLNARIQKAQGMPEGGGALAEGFQVRMFEFQNFERRFEECISQSAVKTKFEQHTVRAKQIAEAVRLIMDSLHMAAREQQVYCEEMREERQDRTRENLEQEIAAMNKKIEVLDSLQSKAKLLRNKAGWLDSELNMFTHQYLQPSR
notes: as for B2
binding result [3]: binds

B6: MFN2IM R364P (CMT2A-related mutant) (domain or fragment, human, UniProt O95140 22-757, looked up)
chain: AEVNASPLKHFVTAKKKINGIFEQLGAYIQESATFLEDTYRNAELDPVTTEEQVLDVKGYLSKVRGISEVLARRHMKVAFFGRTSNGKSTVINAMLWDKVLPSGIGHTTNCFLRVEGTDGHEAFLLTEGSEEKRSAKTVNQLAHALHQDKQLHAGSLVSVMWPNSKCPLLKDDLVLMDSPGIDVTTELDSWIDKFCLDADVFVLVANSESTLMQTEKHFFHKVSERLSRPNIFILNNRWDASASEPEYMEEVRRQHMERCTSFLVDELGVVDRSQAGDRIFFVSAKEVLNARIQKAQGMPEGGGALAEGFQVRMFEFQNFERRFEECISQSAVKTKFEQHTVPAKQIAEAVRLIMDSLHMAAREQQVYCEEMREERQDRTRENLEQEIAAMNKKIEVLDSLQSKAKLLRNKAGWLDSELNMFTHQYLQPSR
notes: as for B2
binding result [3]: binds

B7: MFN2IM R94W (CMT2A-related mutant) (domain or fragment, human, UniProt O95140 22-757, looked up)
chain: AEVNASPLKHFVTAKKKINGIFEQLGAYIQESATFLEDTYRNAELDPVTTEEQVLDVKGYLSKVRGISEVLAWRHMKVAFFGRTSNGKSTVINAMLWDKVLPSGIGHTTNCFLRVEGTDGHEAFLLTEGSEEKRSAKTVNQLAHALHQDKQLHAGSLVSVMWPNSKCPLLKDDLVLMDSPGIDVTTELDSWIDKFCLDADVFVLVANSESTLMQTEKHFFHKVSERLSRPNIFILNNRWDASASEPEYMEEVRRQHMERCTSFLVDELGVVDRSQAGDRIFFVSAKEVLNARIQKAQGMPEGGGALAEGFQVRMFEFQNFERRFEECISQSAVKTKFEQHTVRAKQIAEAVRLIMDSLHMAAREQQVYCEEMREERQDRTRENLEQEIAAMNKKIEVLDSLQSKAKLLRNKAGWLDSELNMFTHQYLQPSR
notes: as for B2
binding result [4]: binds

— article PMC6820788, “Structural insights of human mitofusin-2 into mitochondrial fusion and CMT2A onset” (Nature Communications, 2019)
